Tested on: Escherichia coli TOP10
Experiment: shrunken log2 fold change of peptide-encoding DNA abundance (4.5 h post-induction vs induction); higher = less antimicrobial activity (less host growth inhibition)
Details: time post-induction: 4.5 h; library: site-saturation at positions 5, 18, 19, 20
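Also: peptides expressed intracellularly from a pBAD plasmid library in pooled LB shake-flask culture, induced with 0.3% L-arabinose, DNA abundance read by NGS, three biological replicates, DESeq2 with apeglm shrinkage.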

Row | Sequence | shrunken log2 fold change
1 | RRIRIRPPRLPRPRPRPNAPPRP | 0.00635
2 | RRIRIRPPRLPRPRPRPNCSPRP | -0.175
3 | RRIRIRPPRLPRPRPRPNDTPRP | -1.01
4 | RRIRIRPPRLPRPRPRPNGKPRP | -0.229
5 | RRIRIRPPRLPRPRPRPNGWPRP | 0.101
6 | RRIRIRPPRLPRPRPRPNHDPRP | -0.832
7 | RRIRIRPPRLPRPRPRPNIFPRP | -0.319
8 | RRIRIRPPRLPRPRPRPNIQPRP | -1.03
9 | RRIRIRPPRLPRPRPRPNLGPRP | -0.109
10 | RRIRIRPPRLPRPRPRPNMCPRP | 0.0488
11 | RRIRIRPPRLPRPRPRPNMRPRP | -0.374
12 | RRIRIRPPRLPRPRPRPNMSPRP | -0.783
13 | RRIRIRPPRLPRPRPRPNNQPRP | -0.836
14 | RRIRIRPPRLPRPRPRPNPAPRP | 0.0171
15 | RRIRIRPPRLPRPRPRPNQKPRP | 0.0249
16 | RRIRIRPPRLPRPRPRPNQYPRP | -0.681
17 | RRIRIRPPRLPRPRPRPNRDPRP | -0.0377
18 | RRIRIRPPRLPRPRPRPNRFPRP | -0.174
19 | RRIRIRPPRLPRPRPRPNSYPRP | -0.084
20 | RRIRIRPPRLPRPRPRPNTMPRP | -0.264
21 | RRIRIRPPRLPRPRPRPNTPPRP | -0.487
22 | RRIRIRPPRLPRPRPRPNVKPRP | -0.163
23 | RRIRIRPPRLPRPRPRPNVWPRP | -0.309
24 | RRIRIRPPRLPRPRPRPNWFPRP | 0.0822
25 | RRIRIRPPRLPRPRPRPNWRPRP | 0.0227

Row | Sequence | shrunken log2 fold change
26 | RRIRIRPPRLPRPRPRPNWVPRP | -0.231
27 | RRIRIRPPRLPRPRPRPPAFPRP | -0.155
28 | RRIRIRPPRLPRPRPRPPAQPRP | 0.0916
29 | RRIRIRPPRLPRPRPRPPCYPRP | -0.154
30 | RRIRIRPPRLPRPRPRPPDGPRP | 1.84
31 | RRIRIRPPRLPRPRPRPPDVPRP | -0.109
32 | RRIRIRPPRLPRPRPRPPFAPRP | 0.143
33 | RRIRIRPPRLPRPRPRPPFPPRP | 0.141
34 | RRIRIRPPRLPRPRPRPPGRPRP | 0.336
35 | RRIRIRPPRLPRPRPRPPHCPRP | -0.391
36 | RRIRIRPPRLPRPRPRPPKDPRP | -0.674
37 | RRIRIRPPRLPRPRPRPPLGPRP | 0.164
38 | RRIRIRPPRLPRPRPRPPLLPRP | 0.444
39 | RRIRIRPPRLPRPRPRPPLNPRP | -0.227
40 | RRIRIRPPRLPRPRPRPPLYPRP | -0.331
41 | RRIRIRPPRLPRPRPRPPNFPRP | -0.108
42 | RRIRIRPPRLPRPRPRPPPHPRP | 0.392
43 | RRIRIRPPRLPRPRPRPPQSPRP | 0.0652
44 | RRIRIRPPRLPRPRPRPPQVPRP | 0.328
45 | RRIRIRPPRLPRPRPRPPRSPRP | 0.272
46 | RRIRIRPPRLPRPRPRPPSDPRP | -0.101
47 | RRIRIRPPRLPRPRPRPPSWPRP | 0.0866
48 | RRIRIRPPRLPRPRPRPPVMPRP | 0.126
49 | RRIRIRPPRLPRPRPRPPYCPRP | -0.328
50 | RRIRIRPPRLPRPRPRPQAFPRP | -0.0625

Row | Sequence | shrunken log2 fold change
51 | RRIRIRPPRLPRPRPRPQATPRP | -0.24
52 | RRIRIRPPRLPRPRPRPQCTPRP | -0.769
53 | RRIRIRPPRLPRPRPRPQFIPRP | -0.782
54 | RRIRIRPPRLPRPRPRPQFWPRP | 0.133
55 | RRIRIRPPRLPRPRPRPQFYPRP | -0.945
56 | RRIRIRPPRLPRPRPRPQGAPRP | 0.0368
57 | RRIRIRPPRLPRPRPRPQGEPRP | -0.0606
58 | RRIRIRPPRLPRPRPRPQGPPRP | -0.0152
59 | RRIRIRPPRLPRPRPRPQGYPRP | -0.0157
60 | RRIRIRPPRLPRPRPRPQHGPRP | -0.184
61 | RRIRIRPPRLPRPRPRPQIEPRP | -0.0116
62 | RRIRIRPPRLPRPRPRPQIPPRP | -0.216
63 | RRIRIRPPRLPRPRPRPQLPPRP | -0.0273
64 | RRIRIRPPRLPRPRPRPQLSPRP | -0.565
65 | RRIRIRPPRLPRPRPRPQMGPRP | -0.0795
66 | RRIRIRPPRLPRPRPRPQMWPRP | -0.171
67 | RRIRIRPPRLPRPRPRPQMYPRP | -0.211
68 | RRIRIRPPRLPRPRPRPQPRPRP | 0.343
69 | RRIRIRPPRLPRPRPRPQQCPRP | -0.211
70 | RRIRIRPPRLPRPRPRPQQIPRP | -0.552
71 | RRIRIRPPRLPRPRPRPQQRPRP | -0.104
72 | RRIRIRPPRLPRPRPRPQQTPRP | -0.169
73 | RRIRIRPPRLPRPRPRPQRPPRP | -0.465
74 | RRIRIRPPRLPRPRPRPQRSPRP | -0.0897
75 | RRIRIRPPRLPRPRPRPQRWPRP | 0.304

Row | Sequence | shrunken log2 fold change
76 | RRIRIRPPRLPRPRPRPQTFPRP | -0.156
77 | RRIRIRPPRLPRPRPRPQYSPRP | -0.581
78 | RRIRIRPPRLPRPRPRPQYWPRP | -0.361
79 | RRIRIRPPRLPRPRPRPRAIPRP | -0.356
80 | RRIRIRPPRLPRPRPRPRDIPRP | -0.203
81 | RRIRIRPPRLPRPRPRPRDKPRP | 0.115
82 | RRIRIRPPRLPRPRPRPREWPRP | 0.0237
83 | RRIRIRPPRLPRPRPRPREYPRP | -0.565
84 | RRIRIRPPRLPRPRPRPRFPPRP | 0.0241
85 | RRIRIRPPRLPRPRPRPRHLPRP | -0.458
86 | RRIRIRPPRLPRPRPRPRILPRP | -0.188
87 | RRIRIRPPRLPRPRPRPRIPPRP | -0.324
88 | RRIRIRPPRLPRPRPRPRKWPRP | 0.0966
89 | RRIRIRPPRLPRPRPRPRLMPRP | -0.0272
90 | RRIRIRPPRLPRPRPRPRPCPRP | -0.0531
91 | RRIRIRPPRLPRPRPRPRPEPRP | 0.11
92 | RRIRIRPPRLPRPRPRPRPKPRP | 0.567
93 | RRIRIRPPRLPRPRPRPRQKPRP | -0.028
94 | RRIRIRPPRLPRPRPRPRQYPRP | -0.258
95 | RRIRIRPPRLPRPRPRPRRWPRP | 0.592
96 | RRIRIRPPRLPRPRPRPRSLPRP | -0.036
97 | RRIRIRPPRLPRPRPRPRVLPRP | -0.24
98 | RRIRIRPPRLPRPRPRPRVNPRP | -0.603
99 | RRIRIRPPRLPRPRPRPRWQPRP | 0.128
100 | RRIRIRPPRLPRPRPRPSAYPRP | -0.138

Row | Sequence | shrunken log2 fold change
101 | RRIRIRPPRLPRPRPRPSCEPRP | -0.17
102 | RRIRIRPPRLPRPRPRPSCMPRP | -0.637
103 | RRIRIRPPRLPRPRPRPSCSPRP | -0.83
104 | RRIRIRPPRLPRPRPRPSEAPRP | -0.0351
105 | RRIRIRPPRLPRPRPRPSFEPRP | -0.507
106 | RRIRIRPPRLPRPRPRPSGDPRP | -0.742
107 | RRIRIRPPRLPRPRPRPSGTPRP | -0.0278
108 | RRIRIRPPRLPRPRPRPSHDPRP | -0.527
109 | RRIRIRPPRLPRPRPRPSHRPRP | -0.276
110 | RRIRIRPPRLPRPRPRPSHYPRP | -0.528
111 | RRIRIRPPRLPRPRPRPSIDPRP | -0.342
112 | RRIRIRPPRLPRPRPRPSIHPRP | -1.28
113 | RRIRIRPPRLPRPRPRPSIYPRP | -0.925
114 | RRIRIRPPRLPRPRPRPSKQPRP | -0.18
115 | RRIRIRPPRLPRPRPRPSKYPRP | -1.12
116 | RRIRIRPPRLPRPRPRPSMNPRP | -0.717
117 | RRIRIRPPRLPRPRPRPSNSPRP | -1.13
118 | RRIRIRPPRLPRPRPRPSPCPRP | -0.761
119 | RRIRIRPPRLPRPRPRPSQCPRP | -0.0584
120 | RRIRIRPPRLPRPRPRPSRGPRP | 0.242
121 | RRIRIRPPRLPRPRPRPSSCPRP | -0.17
122 | RRIRIRPPRLPRPRPRPSSFPRP | -0.711
123 | RRIRIRPPRLPRPRPRPSSKPRP | -0.599
124 | RRIRIRPPRLPRPRPRPSTMPRP | -1.18
125 | RRIRIRPPRLPRPRPRPSTRPRP | -0.54

Row | Sequence | shrunken log2 fold change
126 | RRIRIRPPRLPRPRPRPSVSPRP | -0.0804
127 | RRIRIRPPRLPRPRPRPSWDPRP | -0.462
128 | RRIRIRPPRLPRPRPRPSWHPRP | -0.707
129 | RRIRIRPPRLPRPRPRPSYMPRP | -1.53
130 | RRIRIRPPRLPRPRPRPTDGPRP | -0.00546
131 | RRIRIRPPRLPRPRPRPTDMPRP | -0.385
132 | RRIRIRPPRLPRPRPRPTDVPRP | -0.444
133 | RRIRIRPPRLPRPRPRPTEPPRP | 0.0374
134 | RRIRIRPPRLPRPRPRPTFCPRP | -0.02
135 | RRIRIRPPRLPRPRPRPTFTPRP | -0.373
136 | RRIRIRPPRLPRPRPRPTGQPRP | 0.0119
137 | RRIRIRPPRLPRPRPRPTHSPRP | -0.469
138 | RRIRIRPPRLPRPRPRPTIAPRP | -0.327
139 | RRIRIRPPRLPRPRPRPTIEPRP | -0.44
140 | RRIRIRPPRLPRPRPRPTKQPRP | -0.242
141 | RRIRIRPPRLPRPRPRPTLLPRP | -0.374
142 | RRIRIRPPRLPRPRPRPTMAPRP | -0.445
143 | RRIRIRPPRLPRPRPRPTMNPRP | -1.01
144 | RRIRIRPPRLPRPRPRPTNDPRP | -0.246
145 | RRIRIRPPRLPRPRPRPTNPPRP | -0.454
146 | RRIRIRPPRLPRPRPRPTNWPRP | -0.128
147 | RRIRIRPPRLPRPRPRPTQNPRP | 0.19
148 | RRIRIRPPRLPRPRPRPTRDPRP | -0.0265
149 | RRIRIRPPRLPRPRPRPTREPRP | 0.255
150 | RRIRIRPPRLPRPRPRPTTIPRP | -0.578
